Experimental data taken from patent US10357572B2, “Prodrugs activated by caspase” (priority 2014, dated 2019).
Starred links: 1 amine or outer side, 2 acyl side, 3 side chain; linkers in the order of their positions; H or OH if unused. Non-standard residues stand in square brackets, D forms with d. Residues, ends and D or L forms follow the SMILES beside them. *: point of attachment. Doxorubicin(3'-N) = COc1cccc2c1C(=O)c1c(O)c3c(c(O)c1C2=O)C[C@@](O)(C(=O)CO)C[C@@H]3O[C@H]1C[C@H](N*)[C@H](O)[C@H](C)O1; Hexanoyl(6-maleimido) = O=C1C=CC(=O)N1CCCCCC(=O)*; PABC = O=C(OCc1ccc(N[*:1])cc1)[*:2]

Assays:
[1] = Plasma concentration-time curve of doxorubicin content after intravenous administration to rats; type: in vivo; details: Sprague-Dawley rats, molar equivalent to 1 mg/kg of doxorubicin
Experimental: The pharmacokinetic profile of the maleimide-KGDEVD-PABC-doxorubicin (SEQ ID NO: 10) and AcKGDEVD-PABC-doxorubicin (SEQ ID NO: 32) conjugates was determined after intravenous administration to Sprague-Dawley rats at a dose of molar equivalent to 1 mg/kg of doxorubicin (FIG. 25). Blood samples were collected at 5, 15, 30, 60, 90 minutes and then 2, 4, 8, 12, 24, 48, 72, 96, 144 hours post-injection (500 μl each). The collected blood samples were stabilized immediately with sodium citrate and centrifuged for 15 min at 2000×g in a refrigerated centrifuge to separated plasma. The plasma samples (200 μl) were transferred to a 96-well black microplate and the intrinsic fluorescence of doxorubicin was read at Ex 485 nm/Em 590 nm. A standard was prepared in fresh plasma and fluorescence was read as described above.

[2] = Plasma concentration-time curves of doxorubicin content after intravenous administration to monkeys; type: in vivo; details: Cynomolgus monkeys, molar equivalent to 1 mg/kg of doxorubicin
Experimental: The pharmacokinetic profiles of the maleimide-KGDEVD-PABC-doxorubicin (SEQ ID NO: 10) and AcKGDEVD-PABC-doxorubicin (SEQ ID NO: 32) conjugates were determined after intravenous administration to Cynomolgus monkeys at a dose of molar equivalent to 1 mg/kg of doxorubicin (FIG. 28). Blood samples were collected at 15, 30, 45, 60, 90 minutes and then 2, 3, 4, 6, 8, 12, 24, 48, 72, 96, 120, 144, 168 hours post-injection (500 μl each). The collected blood samples were stabilized immediately with sodium citrate and centrifuged for 15 min at 2000×g in a refrigerated centrifuge to separate the plasma. The plasma samples (200 al) were transferred to a 96-well black microplate and the intrinsic fluorescence of doxorubicin was read at Ex 485 nm/Em 590 nm. A standard was prepared in fresh plasma and the fluorescence was read as described above.

[3] = molecular target: T1, recombinant human caspase-3 (Homo sapiens, UniProt P42574); assay: HPLC monitored cleavage study by recombinant human caspase-3; type: biochemical; details: incubated with purified caspase-3, HPLC
T1 sequence (P42574 29-175 limits assumed): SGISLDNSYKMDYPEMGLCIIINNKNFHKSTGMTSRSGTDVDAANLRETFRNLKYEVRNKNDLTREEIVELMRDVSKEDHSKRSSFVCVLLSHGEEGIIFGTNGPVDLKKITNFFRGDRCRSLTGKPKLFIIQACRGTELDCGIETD
T1 sequence (P42574 176-277 limits assumed): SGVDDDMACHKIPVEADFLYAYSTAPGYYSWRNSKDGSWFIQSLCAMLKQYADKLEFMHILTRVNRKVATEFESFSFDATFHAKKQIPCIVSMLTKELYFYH
Source text: Example 21—HPLC Monitored Cleavage Studies of Human Serum Albumin-Bound Maleimide-KGDEVD-PABC-Doxorubicin (SEQ ID NO: 10) (HSA-KGDEVD-PABC-Doxorubicin (SEQ ID NO: 31)) by Recombinant Human Caspase-3

Compound: COc1cccc2c1C(=O)c1c(O)c3c(c(O)c1C2=O)C[C@@](O)(C(=O)CO)C[C@@H]3O[C@H]1C[C@H](NC(=O)OCc2ccc(NC(=O)[C@H](CC(=O)O)NC(=O)[C@@H](NC(=O)[C@H](CCC(=O)O)NC(=O)[C@H](CC(=O)O)NC(=O)CNC(=O)[C@H](CCCCNC(=O)CCCCCN3C(=O)C=CC3=O)NC(C)=O)C(C)C)cc2)[C@H](O)[C@H](C)O1 [maleimide-KGDEVD-PABC-doxorubicin, Ac-Lys(EMC)-Gly-Asp-Glu-Val-Asp-PABC-doxorubicin] (Ac-K(Hexanoyl(6-maleimido))GDEVD[PABC]-{Doxorubicin(3'-N)})
- time the conjugate lasted in plasma after administration [1]: more than 6 days
- time the plasma concentration was detectable after administration [2]: more than 7 days

Compound: HSA-maleimide-KGDEVD-PABC-doxorubicin
- time until free doxorubicin was completely liberated from the conjugate [3]: ≤ 1 h

Compound: COc1cccc2c1C(=O)c1c(O)c3c(c(O)c1C2=O)C[C@@](O)(C(=O)CO)C[C@@H]3O[C@H]1C[C@H](NC(=O)OCc2ccc(NC(=O)[C@H](CC(=O)O)NC(=O)[C@@H](NC(=O)[C@H](CCC(=O)O)NC(=O)[C@H](CC(=O)O)NC(=O)CNC(=O)[C@H](CCCCN)NC(C)=O)C(C)C)cc2)[C@H](O)[C@H](C)O1 [AcKGDEVD-PABC-doxorubicin, Ac-Lys-Gly-Asp-Glu-Val-Asp-PABC-doxorubicin] (Ac-KGDEVD[PABC]-{Doxorubicin(3'-N)})
- time until plasma concentration decreased below the detection limit (5 ng/ml) [1]: ≤ 4 h
- half-life ([1]; rat, in vivo, plasma fluorescence, read-out: terminal half-life): 30 min
- time until plasma concentration decreased below the detection limit (5 ng/ml) [2]: ≤ 6 h
- terminal half-life ([2]; plasma fluorescence): 60 min
